# Measurements taken from US20030096275.
# pKd: −log10 of the molar value.
# Molecular target: T1, ArsR (Escherichia coli) (UniProt P15905)
# T1 sequence: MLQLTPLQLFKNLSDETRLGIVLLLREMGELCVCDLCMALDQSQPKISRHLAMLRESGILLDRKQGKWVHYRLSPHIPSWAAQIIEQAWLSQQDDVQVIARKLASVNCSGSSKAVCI
# Assay: SPR
# Conditions: ±10 nM, HBS-EP pH 7.4, 25 C
# [1] = one value stated for all sequences although affinities said to differ, binding inhibited about 55% by 100 uM phenylarsine oxide …
# [2] = one value stated for all sequences
Sequence,pKd [1],pKd [2]
CTGCACTTACACATTCGTTAAGTCATATATGTTTTTGACTTA / TAAGTCAAAAACATATATGACTTAACGAATGTGTAAGTGC [CHROML1],6.30,
TTAAGTCATATATGTTTTTGACTTA (double strand) [CHROMS1],,6.30
TTAATCATATGCGTTTTTGGTTA / TAACCAAAAACGCATATGATT [PLASS1],,6.30
TTAATCATATGCGTTTTTGGTTATGTGTTG / CAACACATAACCAAAAACGCATATGATT [PLASL1],6.30,
